From a protein production outcome set (Wang et al. 2014)

Experiment: label from the status in PepcDB records

MSTSQTKNVSIDTIKEFMYQVLLKVGSDEENARMVRDTLIAADLRGMDTHGIQRFKTVYIDRIKKGMINPTAKPSIIRETSTTCVLDGNNGFGHVNGTIGMKMAIEKAKKYGMGMVVVRNSTHFGIAGYYSLLAAQEGCIGICGTNARSSVAATFGDEPILGTNPLAIGIPSDEAFPYCFDGATSISPTGRFEKYVRMGKTVDKSWASMKGGKPIEDPKELLENYPKGKAYLHPLGGSDEVSGSHKGYCLSEFVEIMSSCLSIANFLNHIEEEKEKSGKFSLGHFFIAINVECFRDLNEFKKNVGDINRTLRNTDKLPGHDRIYTAGEKEYETEQKRRKFGDDLPLVTINEMKELSSFYNVPLPF
protein production: not failed

MSADTSSLDFHPLRADLYQELHSRPFQIIPPHARVTQIAVITTPEQRTRQFEHLQKLHRLLGEPWPEQEVSCYEQSFGKLRIRREVHMEFTSYTFINLADSDADPFAETGLSLLPDGWLAQLEGTVVGAFHVEVRSSSEDARSELAFMRKHFEGMRLVGSSPQEGAARVLGSFQLHSDNFGRFMVLNHHMSNSQLGRLIQRLMEIETYRLMSLLALPVAREITPSLNDMDQQLARITQSLADNESLDEQQILAELTNIAARIEAYRAHTTFRFSATRAYHRLVLTRLEELREDEVSGHLTITEFMTRRLTPAVKTCEAVNERLEDLSRRVDRASEMMRTRVELAIQSQNQQLLSSMDRRSRIQLMMQHTVEGFSVVAISYYLIGLLKLGLDALTGTGLTINEPLVTGLAIPVVMVLVFIGIRTIHHRFIRMARRQ
protein production: failed

MEEVEEFKYEPKSVKEIFIEMKDTVELMVDLAYASLLFGDKEIAEEVLELEERIDLLNYQLMMHSVLAARNVKEAEQVITILQIANAIEDISNAAGDLAKMVLEGVELHPVIKETILEGEEIIGKIQVYPESVIVGKTLGELDLATNTGVWIIAVRRGKRWIFGPNENFKIRAGDVLIGRGTRTSIDHLKEIARGAIRVIGNERA
protein production: not failed

MGAMAEIQFIRGINEEVVPDVRLTRARDGSSGQAMFYFDNPKIVQEGNLEVTGMYMVDEEGEIVTRDVNAKFINGQPVAIEATYTMRSPQEWDRFIRFMDRYAASHGLGFQKSENS
protein production: failed

MTKILYMVVPCYNEELVLDETSERLKAKYEQLISNNIISPKSRVVYVNDGSKDKTWEKIQEKHNENPMFSGINLSRNRGHQNALLAGLMTVRNLADCVISMDADLQDDINAIDEMLEKFENENCDIVYGVRDNRDTDTVFKRRTAGAFYKLMQGLGSQSVPNHADFRLMSRRALDGLAQFPEQNLFLRGMVPLVGYKSDIVYYKRGERFAGESKYPLKKMISFALDGITSTSAAPMRLIFWIGLIWFLLAIVGAIYIIARHFINGSDVAGWASTMLAIIGFGGANLLALGVIGEYIGKIFLEVKQRPRYLIEDFINED
protein production: failed

MSTQYWEEEIEIMSREKLQELQLQRLKKTINIAANSPYYKEVFSKNGITGDSIQSLDDIRKIPFTTKSDMRANYPFGLVAGDMKRDGVRIHSSSGTTGNPTVIVHSQHDLDSWANLVARCLYMVGIRKTDVFQNSSGYGMFTGGLGFQYGAERLGCLTVPAAAGNSKRQIKFISDFKTTALHAIPSYAIRLAEVFQEEGIDPRETTLKTLVIGAEPHTDEQRRKIERMLNVKAYNSFGMTEMNGPGVAFECQEQNGMHFWEDCYLVEIIDPETGEPVPEGEIGELVLTTLDREMMPLIRYRTRDLTRILPGKCPCGRTHLRIDRIKGRSDDMFIIKGVNIFPMQVEKILVQFPELGSNYLITLETVNNQDEMIVEVELSDLSTDNYIELEKIRRDIIRQLKDEILVTPKVKLVKKGSLPQSEGKAVRVKDLRDNK
protein production: not failed

MTLVLILLALIAFIVLSTTRLKLHPFLALLAAALIAGFAYQVPTAEIVKTVTGGFGSILGYIGIVIVLGTIIGVILERSGAAITMAESVIRLLGERFPTLTMSIIGYLVSIPVFCDSGFVILNSLKNALAARMKISTIAMSVALATGLYATHTFVPPTPGPIAAAGNLGLDASLGLVIVVGLVVAFVTAMAGMWWANRFVGKDIPLVDDGQVVQTEEDFSELRARYGKLPSATQAFAPIFVPILLICLGSVAVFPSKPLGEGVLFACLNFLGQPVIALLVGLALACTLLKGQSKREEFHERVVEGIQSAAPILLITGAGGAFGAMLKITPLGDYLGSTLSALGIGLFMPFVVAAALKTAQGSTTVALVTTSALVAPLLPQLGLDSEMGRVLTVMAIGAGAMTVSHANDSFFWVVTQFSRMTVSTAYRAQTLATLVQGIAGMLAVWLLSLVLL
protein production: failed
